Experimental data taken from US20160264649A1.

Tests used:
Experiment in all cases: cell-based or functional assay
[1] = target: HIV-1 92RW020 Env (HIV-1)
[2] = target: HIV-1 MGRM-A-007 Env (HIV-1)
[3] = target: HIV-1 MGRM-A-010 Env (HIV-1)
[4] = target: HIV-1 MGRM-A-013 Env (HIV-1)
[5] = target: HIV-1 92BR020 Env (HIV-1)
[6] = target: HIV-1 92BR020 Env on pseudovirus (HIV-1)
[7] = target: HIV-1 92UG001 Env (HIV-1)
[8] = target: HIV-1 92UG046 Env (HIV-1)
[9] = target: HIV-1 93TH305 Env on pseudovirus (HIV-1)
[10] = target: HIV-1 94UG114 Env (HIV-1)
HIV-1 APV-17 Env (HIV-1) = target: HIV-1 APV-17 Env (HIV-1)
[11] = target: HIV-1 APV_17 Env on pseudovirus (HIV-1)
[12] = target: HIV-1 APV_6 Env on pseudovirus (HIV-1)
[13] = target: HIV-1 CAAN.A2 (Acute) Env on pseudovirus (HIV-1)
HIV-1 JRCSF Env (HIV-1) = HIV-1 JRCSF Env (HIV-1) (UniProt P20871)
[14] = target: HIV-1 LAVI_C22 Env on pseudovirus (HIV-1)
[15] = target: HIV-1 MGRM-AE-001 Env (HIV-1)
[16] = target: HIV-1 MGRM-AE-002 Env (HIV-1)
[17] = target: HIV-1 MGRM-AE-003 Env (HIV-1)
[18] = target: HIV-1 MGRM-AE-006 Env (HIV-1)
[19] = target: HIV-1 MGRM-AG-001 Env (HIV-1)
[20] = target: HIV-1 MGRM-AG-003 Env (HIV-1)
[21] = target: HIV-1 MGRM-AG-006 Env (HIV-1)
[22] = target: HIV-1 MGRM-AG-008 Env (HIV-1)
[23] = target: HIV-1 MGRM-AG-013 Env (HIV-1)
[24] = target: HIV-1 MGRM-C-013 Env on pseudovirus (HIV-1)
[25] = target: HIV-1 MGRM-C-014 Env on pseudovirus (HIV-1)
[26] = target: HIV-1 MGRM-Chronic-B-001 Env on pseudovirus (HIV-1)
[27] = target: HIV-1 MGRM-Chronic-B-002 Env on pseudovirus (HIV-1)
[28] = target: HIV-1 MGRM-Chronic-B-003 Env on pseudovirus (HIV-1)
[29] = target: HIV-1 MGRM-Chronic-B-008 Env on pseudovirus (HIV-1)
[30] = target: HIV-1 MGRM-Chronic-B-011 Env on pseudovirus (HIV-1)
[31] = target: HIV-1 MGRM-Chronic-B-017 Env on pseudovirus (HIV-1)
[32] = target: HIV-1 MGRM-Chronic-B-023 Env on pseudovirus (HIV-1)
[33] = target: HIV-1 MGRM-D-002 Env (HIV-1)
[34] = target: HIV-1 MGRM-D-003 Env (HIV-1)
[35] = target: HIV-1 MGRM-D-005 Env (HIV-1)
[36] = target: HIV-1 MGRM-D-013 Env (HIV-1)
[37] = target: HIV-1 MGRM-D-016 Env (HIV-1)
[38] = target: HIV-1 MGRM-D-018 Env (HIV-1)
[39] = target: HIV-1 MGRM-D-021 Env (HIV-1)
[40] = target: HIV-1 MGRM-D-022 Env (HIV-1)
[41] = target: HIV-1 MGRM-D-028 Env (HIV-1)
[42] = target: HIV-1 MGRM-F1-016 Env (HIV-1)
[43] = target: HIV-1 MGRM-G-006 Env (HIV-1)
[44] = target: HIV-1 MGRM-G-019 Env (HIV-1)
[45] = target: HIV-1 MGRM-G-024 Env (HIV-1)
[46] = target: HIV-1 MGRM-G-025 Env (HIV-1)
[47] = target: HIV-1 MGRM-G-027 Env (HIV-1)
[48] = target: HIV-1 MGRM-G-028 Env (HIV-1)
[49] = target: HIV-1 THR0.18 (Acute) Env on pseudovirus (HIV-1)
[50] = target: HIV-1 VLGCB3 Env on pseudovirus (HIV-1)

Substance: 1495_C14 (PGC14) (antibody)
- neutralization IC50 [1]: 46 µg/mL
- neutralization IC50 [2]: > 50 µg/mL
- neutralization IC50 [3]: > 50 µg/mL
- neutralization IC50 [4]: > 50 µg/mL
- neutralization IC50 [5]: 0.637 µg/mL
- IC50 [6]: 4 µg/mL
- IC50 (µg/ml), pseudovirus neutralization [7]: > 50 µg/mL
- IC50 (µg/ml), pseudovirus neutralization [8]: > 50 µg/mL
- IC50 [9]: 6 µg/mL
- IC50 (µg/ml), pseudovirus neutralization [10]: > 50 µg/mL
- neutralization IC50 (HIV-1 APV-17 Env (HIV-1)): > 50 µg/mL
- IC50 [11]: > 50 µg/mL
- IC50 [12]: 23 µg/mL
- IC50 [13]: > 50 µg/mL
- neutralization IC50 (HIV-1 JRCSF Env (HIV-1)): > 50 µg/mL
- IC50 [14]: 25 µg/mL
- IC50 (µg/ml), pseudovirus neutralization [15]: > 50 µg/mL
- IC50 (µg/ml), pseudovirus neutralization [16]: > 50 µg/mL
- IC50 (µg/ml), pseudovirus neutralization [17]: > 50 µg/mL
- IC50 (µg/ml), pseudovirus neutralization [18]: > 50 µg/mL
- IC50 (µg/ml), pseudovirus neutralization [19]: > 50 µg/mL
- IC50 (µg/ml), pseudovirus neutralization [20]: > 50 µg/mL
- IC50 (µg/ml), pseudovirus neutralization [21]: > 50 µg/mL
- IC50 (µg/ml), pseudovirus neutralization [22]: 45 µg/mL
- IC50 (µg/ml), pseudovirus neutralization [23]: > 50 µg/mL
- IC50 [24]: > 50 µg/mL
- IC50 [25]: > 50 µg/mL
- IC50 [26]: > 50 µg/mL
- IC50 [27]: > 50 µg/mL
- IC50 [28]: > 50 µg/mL
- IC50 [29]: > 50 µg/mL
- IC50 [30]: > 50 µg/mL
- IC50 [31]: > 50 µg/mL
- IC50 [32]: > 50 µg/mL
- IC50 (µg/ml), pseudovirus neutralization [33]: 29 µg/mL
- IC50 (µg/ml), pseudovirus neutralization [34]: > 50 µg/mL
- IC50 (µg/ml), pseudovirus neutralization [35]: > 50 µg/mL
- IC50 (µg/ml), pseudovirus neutralization [36]: > 50 µg/mL
- IC50 (µg/ml), pseudovirus neutralization [37]: > 50 µg/mL
- IC50 (µg/ml), pseudovirus neutralization [38]: > 50 µg/mL
- IC50 (µg/ml), pseudovirus neutralization [39]: > 50 µg/mL
- IC50 (µg/ml), pseudovirus neutralization [40]: > 50 µg/mL
- IC50 (µg/ml), pseudovirus neutralization [41]: > 50 µg/mL
- IC50 (pseudovirus neutralization) [42]: > 50 µg/mL
- IC50 (µg/ml), pseudovirus neutralization [43]: > 50 µg/mL
- IC50 (µg/ml), pseudovirus neutralization [44]: > 50 µg/mL
- IC50 (µg/ml), pseudovirus neutralization [45]: > 50 µg/mL
- IC50 (µg/ml), pseudovirus neutralization [46]: > 50 µg/mL
- IC50 (µg/ml), pseudovirus neutralization [47]: > 50 µg/mL
- IC50 (µg/ml), pseudovirus neutralization [48]: > 50 µg/mL
- IC50 [49]: > 50 µg/mL
- IC50 [50]: 21 µg/mL

Substance: b12 (antibody)
- neutralization IC50 [1]: > 50 µg/mL
- neutralization IC50 [2]: > 50 µg/mL
- neutralization IC50 [3]: > 50 µg/mL
- neutralization IC50 [4]: 7.04 µg/mL
- neutralization IC50 [5]: 27.5 µg/mL
- neutralization IC90 [5]: > 50 µg/mL
- IC50 [6]: > 50 µg/mL
- IC50 (µg/ml), pseudovirus neutralization [7]: 1.01 µg/mL
- IC50 (µg/ml), pseudovirus neutralization [8]: 0.07 µg/mL
- IC50 [9]: 4.17 µg/mL
- IC50 (µg/ml), pseudovirus neutralization [10]: > 50 µg/mL
- neutralization IC50 (HIV-1 APV-17 Env (HIV-1)): > 25 µg/mL
- neutralization IC90 (HIV-1 APV-17 Env (HIV-1)): > 50 µg/mL
- IC50 [11]: > 50 µg/mL
- IC50 [12]: > 50 µg/mL
- IC50 [13]: > 50 µg/mL
- neutralization IC50 (HIV-1 JRCSF Env (HIV-1)): 0.16 µg/mL
- neutralization IC90 (HIV-1 JRCSF Env (HIV-1)): 1.17 µg/mL
- IC50 [14]: 7.64 µg/mL
- IC50 (µg/ml), pseudovirus neutralization [15]: 25.9 µg/mL
- IC50 (µg/ml), pseudovirus neutralization [16]: 17.1 µg/mL
- IC50 (µg/ml), pseudovirus neutralization [17]: > 50 µg/mL
- IC50 (µg/ml), pseudovirus neutralization [18]: > 50 µg/mL
- IC50 (µg/ml), pseudovirus neutralization [19]: 11.9 µg/mL
- IC50 (µg/ml), pseudovirus neutralization [20]: > 50 µg/mL
- IC50 (µg/ml), pseudovirus neutralization [21]: > 50 µg/mL
- IC50 (µg/ml), pseudovirus neutralization [22]: > 50 µg/mL
- IC50 (µg/ml), pseudovirus neutralization [23]: > 50 µg/mL
- IC50 [24]: > 50 µg/mL
- IC50 [25]: > 50 µg/mL
- IC50 [26]: 0.75 µg/mL
- IC50 [27]: 0.86 µg/mL
- IC50 [28]: > 50 µg/mL
- IC50 [29]: 2.82 µg/mL
- IC50 [30]: 2.11 µg/mL
- IC50 [31]: 2.59 µg/mL
- IC50 [32]: > 50 µg/mL
- IC50 (µg/ml), pseudovirus neutralization [33]: > 50 µg/mL
- IC50 (µg/ml), pseudovirus neutralization [34]: > 50 µg/mL
- IC50 (µg/ml), pseudovirus neutralization [35]: > 50 µg/mL
- IC50 (µg/ml), pseudovirus neutralization [36]: > 50 µg/mL
- IC50 (µg/ml), pseudovirus neutralization [37]: 1.12 µg/mL
- IC50 (µg/ml), pseudovirus neutralization [38]: 1.39 µg/mL
- IC50 (µg/ml), pseudovirus neutralization [39]: 5.23 µg/mL
- IC50 (µg/ml), pseudovirus neutralization [40]: 17.6 µg/mL
- IC50 (µg/ml), pseudovirus neutralization [41]: 0.78 µg/mL
- IC50 (pseudovirus neutralization) [42]: > 50 µg/mL
- IC50 (µg/ml), pseudovirus neutralization [43]: > 50 µg/mL
- IC50 (µg/ml), pseudovirus neutralization [44]: 3.77 µg/mL
- IC50 (µg/ml), pseudovirus neutralization [45]: 2.38 µg/mL
- IC50 (µg/ml), pseudovirus neutralization [46]: > 50 µg/mL
- IC50 (µg/ml), pseudovirus neutralization [47]: > 50 µg/mL
- IC50 (µg/ml), pseudovirus neutralization [48]: > 50 µg/mL
- IC50 [49]: 3.62 µg/mL
- IC50 [50]: 0.15 µg/mL
